Reference: PMC4742278 (2016)

Key:
[1] = biological target: T1, EBNA2_(381–389) peptide with an additional Gly-Tyr dipeptide at the C-terminus (NH2-[…]-CONH2) (Epstein-Barr virus, strain B95-8, C-terminal amide (CONH2)); assay: ITC
[2] = biological target: T1, EBNA2_(381–389) peptide with an …; assay: ITC; N fixed to 1

| Binder | Kd [1] [µM] | Kd [2] [µM] |
| --- | --- | --- |
| QTKKKQWCYNCEEEAMAHCCWNTSYCSIKCQQEHWHAEHKRTCRRKR (domain or fragment) [BS69_(MYND) Y532A] | 64.5 | – |
| QTKKKQWCYNCEEEAMYHCCWNTSYCSIKCQQEHWHAEHKRTCRAKR (domain or fragment) [BS69_(MYND) R560A] | – | ~279 |
